Results published in patent CN116710484A (MYLINGENE INC, dated 2023).

How the values were obtained:
[1] = target: T1, human recombinant WARS1 protein (tryptophanyl-tRNA synthetase 1) (human, UniProt P23381 1-471, limits assumed); experiment: SPR, Biacore T200, CM5 chip
T1 construct: Recombinant protein; also called 人WARS1; 人重组蛋白
T1 sequence (looked up): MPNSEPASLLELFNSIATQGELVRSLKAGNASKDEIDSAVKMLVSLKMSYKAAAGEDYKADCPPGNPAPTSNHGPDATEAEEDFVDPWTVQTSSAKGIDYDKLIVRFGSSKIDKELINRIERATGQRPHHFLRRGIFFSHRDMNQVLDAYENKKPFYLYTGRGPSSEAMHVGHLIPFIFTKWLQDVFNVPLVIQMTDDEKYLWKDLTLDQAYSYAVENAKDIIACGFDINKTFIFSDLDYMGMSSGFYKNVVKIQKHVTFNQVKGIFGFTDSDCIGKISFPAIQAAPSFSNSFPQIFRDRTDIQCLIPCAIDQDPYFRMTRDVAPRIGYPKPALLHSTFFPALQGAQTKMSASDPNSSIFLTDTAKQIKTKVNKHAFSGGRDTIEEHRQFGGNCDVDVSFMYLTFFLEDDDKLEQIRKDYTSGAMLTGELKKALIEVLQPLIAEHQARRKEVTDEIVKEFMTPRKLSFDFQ

[2] = target: T2, mouse recombinant WARS1 protein (mouse, UniProt P32921 1-481, limits assumed); experiment: SPR, Biacore T200, CM5 chip
T2 construct: Recombinant protein; also called 小鼠WARS1; 小鼠重组蛋白
T2 sequence (looked up): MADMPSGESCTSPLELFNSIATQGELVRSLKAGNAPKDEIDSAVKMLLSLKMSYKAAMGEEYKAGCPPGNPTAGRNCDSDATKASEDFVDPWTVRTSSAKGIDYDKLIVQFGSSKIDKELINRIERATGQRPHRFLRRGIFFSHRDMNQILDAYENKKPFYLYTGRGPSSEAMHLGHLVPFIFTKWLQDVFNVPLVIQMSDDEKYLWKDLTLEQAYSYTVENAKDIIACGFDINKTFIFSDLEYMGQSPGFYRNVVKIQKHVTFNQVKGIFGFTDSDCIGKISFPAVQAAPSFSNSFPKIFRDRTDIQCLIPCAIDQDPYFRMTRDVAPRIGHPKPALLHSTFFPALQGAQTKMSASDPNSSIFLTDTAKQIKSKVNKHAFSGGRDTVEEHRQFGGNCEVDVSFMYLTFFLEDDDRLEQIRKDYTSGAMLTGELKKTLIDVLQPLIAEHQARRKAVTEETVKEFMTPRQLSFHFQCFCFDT

Kd [1]: ~0.2 nM
Kd [2]: ~3.76 nM
B1: GKB101 (antibody, V domains shown)
VH: EVQLLESGGGLVQPGGSLRLSCAASGFTFSSYDMSWVRQAPGKGLEWVSAISSGGSSIYYADSVKGRFTISRDNSKNTLYLQMNSLRAEDTAVYYCARDVAWDMLGDFDYWGQGTLVTVSS
VL: QSVLTQPPSASGTPGQRVTISCTGSSSNIGSNYVYWYQQLPGTAPKLLIYANSHRPSGVPDRFSGSKSGTSASLAISGLRSEDEADYYCGAWDDSLSAYVFGGGTKLTV
notes: also called WARS1特异性抗体; 抗WARS1抗体
